Results: FireProtDB (doi:10.1111/j.1432-1033.1992.tb16932.x)

B1: Ribonuclease HI, P0A7Y4 (parent)
chain: MLKQVEIFTDGSCLGNPGPGGYGAILRYRGREKTFSAGYTRTTNNRMELMAAIVALEALKEHCEVILSTDSQYVRQGITQWIHNWKKRGWKTADKKPVKNVDLWQRLDAALGQHQIKWEWVKGHAGHPENERCDELARAAAMNPTLEDTGYQVEV

Variants of: B1
Details: Escherichia coli (strain K12), CD, reversible: yes, structure 2RN2, whole UniProt chain shown
[1] = pH 3, 49.8 °C, Thermal, glycine-HCl 10 mM
[2] = pH 3, Thermal, glycine-HCl 10 mM
[3] = pH 5.5, 25 °C, Urea, Sodium acetate 10 mM, NaCl 0.1 M

Variant	ddG of mutation (higher = less stable) [1]	Tm [2]	change of melting temperature, mutant - wild type (higher = more stable) [2]	unfolding enthalpy (van 't Hoff) [2]	ddG of mutation (higher = less stable) [3]	denaturant m value [3]	denaturant midpoint (higher = more stable) [3]	unfolding free energy [3]
S68A	0.5 kcal/mol	48.3 °C	-1.5 °C	89 kcal/mol	-0.19 kcal/mol	2.06 kcal/mol/M	4.8 M	10 kcal/mol
S68L	0.5 kcal/mol	48.2 °C	-1.6 °C	84 kcal/mol	–	–	–	–
S68T	0.2 kcal/mol	49.1 °C	-0.7 °C	106 kcal/mol	-0.1 kcal/mol	1.95 kcal/mol/M	5 M	9.91 kcal/mol
S68V	-0.6 kcal/mol	51.7 °C	1.9 °C	98.8 kcal/mol	-1.29 kcal/mol	2.13 kcal/mol/M	5.1 M	11.1 kcal/mol
S68G	2.4 kcal/mol	41.8 °C	-8 °C	84.7 kcal/mol	2.2 kcal/mol	2 kcal/mol/M	4 M	7.61 kcal/mol
